Measurements published in IntAct's records for PubMed 21331046.

B1: Oxysterols receptor LXR-beta (Homo sapiens), P55055 (parent)
chain: MSSPTTSSLDTPLPGNGPPQPGAPSSSPTVKEEGPEPWPGGPDPDVPGTDEASSACSTDWVIPDPEEEPERKRKKGPAPKMLGHELCRVCGDKASGFHYNVLSCEGCKGFFRRSVVRGGARRYACRGGGTCQMDAFMRRKCQQCRLRKCKEAGMREQCVLSEEQIRKKKIRKQQQESQSQSQSPVGPQGSSSSASGPGASPGGSEAGSQGSGEGEGVQLTAAQELMIQQLVAAQLQCNKRSFSDQPKVTPWPLGADPQSRDARQQRFAHFTELAIISVQEIVDFAKQVPGFLQLGREDQIALLKASTIEIMLLETARRYNHETECITFLKDFTYSKDDFHRAGLQVEFINPIFEFSRAMRRLGLDDAEYALLIAINIFSADRPNVQEPGRVEALQQPYVEALLSYTRIKRPQDQLRFPRMLMKLVSLRTLSSVHSEQVFALRLQDKKLPPLLSEIWDVHE
B2: Oxysterols receptor LXR-beta (Homo sapiens), P55055 (parent)
chain: B1 chain
partner: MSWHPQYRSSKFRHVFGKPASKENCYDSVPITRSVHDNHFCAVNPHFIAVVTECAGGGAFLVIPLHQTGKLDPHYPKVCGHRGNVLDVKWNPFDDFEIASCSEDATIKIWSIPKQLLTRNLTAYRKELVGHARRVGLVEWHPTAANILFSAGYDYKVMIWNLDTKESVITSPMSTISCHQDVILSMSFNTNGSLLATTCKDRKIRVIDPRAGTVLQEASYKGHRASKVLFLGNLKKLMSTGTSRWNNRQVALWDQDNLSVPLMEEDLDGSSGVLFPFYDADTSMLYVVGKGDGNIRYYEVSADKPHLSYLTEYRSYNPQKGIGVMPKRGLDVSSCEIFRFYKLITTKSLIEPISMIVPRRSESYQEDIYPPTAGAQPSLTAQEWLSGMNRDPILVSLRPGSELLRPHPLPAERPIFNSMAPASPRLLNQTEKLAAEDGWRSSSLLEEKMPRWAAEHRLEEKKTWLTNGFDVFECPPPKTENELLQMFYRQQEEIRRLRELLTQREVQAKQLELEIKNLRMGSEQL
B3: Oxysterols receptor LXR-beta (Homo sapiens), P55055 (parent)
chain: B1 chain
partner: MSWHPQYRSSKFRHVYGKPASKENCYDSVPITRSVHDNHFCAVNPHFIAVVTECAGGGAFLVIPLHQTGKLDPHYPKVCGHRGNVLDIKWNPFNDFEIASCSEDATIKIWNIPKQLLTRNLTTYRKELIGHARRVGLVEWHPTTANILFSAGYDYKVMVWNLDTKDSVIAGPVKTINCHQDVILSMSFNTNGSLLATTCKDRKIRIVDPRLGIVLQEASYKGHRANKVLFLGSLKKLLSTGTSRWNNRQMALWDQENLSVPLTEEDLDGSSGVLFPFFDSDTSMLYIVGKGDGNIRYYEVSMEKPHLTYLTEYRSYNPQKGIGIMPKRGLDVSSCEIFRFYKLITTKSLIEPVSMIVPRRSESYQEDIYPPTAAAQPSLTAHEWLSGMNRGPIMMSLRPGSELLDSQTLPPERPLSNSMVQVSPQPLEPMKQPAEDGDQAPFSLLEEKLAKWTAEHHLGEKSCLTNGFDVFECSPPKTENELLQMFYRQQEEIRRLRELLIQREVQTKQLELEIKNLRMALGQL

Variants of: B1
Conditions: with senp3_mouse Senp3, Q9EP97
Chain of senp3_mouse Senp3, Q9EP97 (Q9EP97 whole entry): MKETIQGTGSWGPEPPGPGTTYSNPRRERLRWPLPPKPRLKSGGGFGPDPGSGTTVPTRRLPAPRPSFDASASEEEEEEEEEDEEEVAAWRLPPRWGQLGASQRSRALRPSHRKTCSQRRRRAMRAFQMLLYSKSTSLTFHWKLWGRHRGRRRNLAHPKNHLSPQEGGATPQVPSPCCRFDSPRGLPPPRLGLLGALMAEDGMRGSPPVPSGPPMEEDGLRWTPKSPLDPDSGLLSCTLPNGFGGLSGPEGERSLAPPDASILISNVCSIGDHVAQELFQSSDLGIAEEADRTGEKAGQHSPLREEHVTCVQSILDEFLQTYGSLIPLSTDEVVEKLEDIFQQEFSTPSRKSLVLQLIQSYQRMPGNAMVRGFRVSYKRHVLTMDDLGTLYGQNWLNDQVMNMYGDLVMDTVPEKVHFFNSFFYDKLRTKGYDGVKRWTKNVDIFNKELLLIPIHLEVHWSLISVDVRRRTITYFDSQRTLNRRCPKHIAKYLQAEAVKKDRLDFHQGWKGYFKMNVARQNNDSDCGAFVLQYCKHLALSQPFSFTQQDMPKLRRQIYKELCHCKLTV

Variant | effect of a mutation on the interaction
MSSPTTSSLDTPLPGNGPPQPGAPSSSPTVKEEGPEPWPGGPDPDVPGTDEASSACSTDWVIPDPEEEPERKRKKGPAPKMLGHELCRVCGDKASGFHYNVLSCEGCKGFFRRSVVRGGARRYACRGGGTCQMDAFMRRKCQQCRLRKCKEAGMREQCVLSEEQIRKKKIRKQQQESQSQSQSPVGPQGSSSSASGPGASPGGSEAGSQGSGEGEGVQLTAAQELMIQQLVAAQLQCNKRSFSDQPKVTPWPLGADPQSRDARQQRFAHFTELAIISVQEIVDFAKQVPGFLQLGREDQIALLKASTIEIMLLETARRYNHETECITFLKDFTYSKDDFHRAGLQVEFINPIFEFSRAMRRLGLDDAEYALLIAINIFSADRPNVQEPGRVEALQQPYVEALLSYTRIKRPQDQLRFPRMLMKLVALRTLSSVHSEQVFALRLQDKKLPPLLSEIWDVHE [S426A] | disrupting interaction

Variants of: B2
Conditions: with cor2a_human CORO2A

Variant | effect of a mutation on the interaction
MSSPTTSSLDTPLPGNGPPQPGAPSSSPTVKEEGPEPWPGGPDPDVPGTDEASSACSTDWVIPDPEEEPERKRKKGPAPKMLGHELCRVCGDKASGFHYNVLSCEGCKGFFRRSVVRGGARRYACRGGGTCQMDAFMRRKCQQCRLRKCKEAGMREQCVLSEEQIRKKKIRKQQQESQSQSQSPVGPQGSSSSASGPGASPGGSEAGSQGSGEGEGVQLTAAQELMIQQLVAAQLQCNKRSFSDQPKVTPWPLGADPQSRDARQQRFAHFTELAIISVQEIVDFAKQVPGFLQLGREDQIALLKASTIEIMLLETARRYNHETECITFLKDFTYSKDDFHRAGLQVEFINPIFEFSRAMRRLGLDDAEYALLIAINIFSADRPNVQEPGRVEALQQPYVEALLSYTRIRRPQDQLRFPRMLMKLVSLRTLSSVHSEQVFALRLQDKRLPPLLSEIWDVHE [K409R;K447R] | disrupting interaction

Variants of: B3
Conditions: with cor2a_mouse Coro2a

Variant | effect of a mutation on the interaction
MSSPTTSSLDTPLPGNGPPQPGAPSSSPTVKEEGPEPWPGGPDPDVPGTDEASSACSTDWVIPDPEEEPERKRKKGPAPKMLGHELCRVCGDKASGFHYNVLSCEGCKGFFRRSVVRGGARRYACRGGGTCQMDAFMRRKCQQCRLRKCKEAGMREQCVLSEEQIRKKKIRKQQQESQSQSQSPVGPQGSSSSASGPGASPGGSEAGSQGSGEGEGVQLTAAQELMIQQLVAAQLQCNKRSFSDQPKVTPWPLGADPQSRDARQQRFAHFTELAIISVQEIVDFAKQVPGFLQLGREDQIALLKASTIEIMLLETARRYNHETECITFLKDFTYSKDDFHRAGLQVEFINPIFEFSRAMRRLGLDDAEYALLIAINIFSADRPNVQEPGRVEALQQPYVEALLSYTRIKRPQDQLRFPRMLMKLVDLRTLSSVHSEQVFALRLQDKKLPPLLSEIWDVHE [S426D] | disrupting interaction
